Measured values: patent US20110275569A1 (CONSIGLIO NAZIONALE DELLE RICERCHE, published 2011)
Where no end group is shown, it is not given here.

T1: human acylamino-acid-releasing enzyme (AARE or APEH) (human, UniProt P13798 1-732, limits assumed)
T1 sequence (looked up): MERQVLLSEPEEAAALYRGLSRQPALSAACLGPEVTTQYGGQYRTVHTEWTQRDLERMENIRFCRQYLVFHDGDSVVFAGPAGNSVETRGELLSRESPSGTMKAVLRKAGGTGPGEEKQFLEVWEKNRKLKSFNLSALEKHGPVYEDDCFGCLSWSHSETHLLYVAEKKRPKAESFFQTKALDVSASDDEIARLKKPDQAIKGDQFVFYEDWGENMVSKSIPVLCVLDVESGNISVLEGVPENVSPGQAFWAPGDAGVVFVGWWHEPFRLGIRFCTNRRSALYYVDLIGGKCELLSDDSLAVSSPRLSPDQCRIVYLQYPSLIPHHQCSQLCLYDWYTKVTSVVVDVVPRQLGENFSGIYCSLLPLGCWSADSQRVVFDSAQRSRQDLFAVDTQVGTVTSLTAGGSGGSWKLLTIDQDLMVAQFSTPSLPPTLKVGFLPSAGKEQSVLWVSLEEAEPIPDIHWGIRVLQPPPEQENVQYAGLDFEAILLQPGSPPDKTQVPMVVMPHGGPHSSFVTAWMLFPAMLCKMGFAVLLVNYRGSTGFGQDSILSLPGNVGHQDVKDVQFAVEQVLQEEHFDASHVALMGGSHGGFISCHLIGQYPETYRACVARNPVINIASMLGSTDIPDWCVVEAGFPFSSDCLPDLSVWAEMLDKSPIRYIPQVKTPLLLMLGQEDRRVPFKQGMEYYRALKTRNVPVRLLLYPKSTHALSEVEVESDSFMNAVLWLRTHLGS

T2: porcine acylamino-acid-releasing enzyme (AARE or APEH) (porcine, UniProt P19205 1-732, limits assumed)
T2 sequence (looked up): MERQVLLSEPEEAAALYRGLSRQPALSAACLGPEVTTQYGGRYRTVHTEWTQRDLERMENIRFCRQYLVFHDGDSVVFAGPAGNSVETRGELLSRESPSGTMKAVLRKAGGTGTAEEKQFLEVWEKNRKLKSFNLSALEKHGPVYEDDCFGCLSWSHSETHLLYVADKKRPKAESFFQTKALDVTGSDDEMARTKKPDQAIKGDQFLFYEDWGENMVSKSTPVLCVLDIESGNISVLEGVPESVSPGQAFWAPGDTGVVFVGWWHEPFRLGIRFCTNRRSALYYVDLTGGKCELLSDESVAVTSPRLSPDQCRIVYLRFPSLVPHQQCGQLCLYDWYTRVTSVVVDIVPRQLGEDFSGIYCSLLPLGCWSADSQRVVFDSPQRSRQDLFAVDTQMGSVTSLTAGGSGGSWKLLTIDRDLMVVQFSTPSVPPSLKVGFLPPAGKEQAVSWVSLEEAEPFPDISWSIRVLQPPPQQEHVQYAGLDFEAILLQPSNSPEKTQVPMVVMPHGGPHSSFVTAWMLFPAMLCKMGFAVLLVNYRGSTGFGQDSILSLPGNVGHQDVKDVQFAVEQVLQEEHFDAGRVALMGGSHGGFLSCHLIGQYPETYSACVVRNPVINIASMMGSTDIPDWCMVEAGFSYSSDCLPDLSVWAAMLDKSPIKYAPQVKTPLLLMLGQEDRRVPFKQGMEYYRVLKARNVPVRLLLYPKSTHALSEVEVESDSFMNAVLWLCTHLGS


How the values were obtained:
porcine elastase [1] = biological target: T3, porcine elastase (porcine, UniProt P00772 27-266); assay: enzyme inhibition kinetics, double reciprocal plot
T3 sequence (P00772 27-266 limits assumed): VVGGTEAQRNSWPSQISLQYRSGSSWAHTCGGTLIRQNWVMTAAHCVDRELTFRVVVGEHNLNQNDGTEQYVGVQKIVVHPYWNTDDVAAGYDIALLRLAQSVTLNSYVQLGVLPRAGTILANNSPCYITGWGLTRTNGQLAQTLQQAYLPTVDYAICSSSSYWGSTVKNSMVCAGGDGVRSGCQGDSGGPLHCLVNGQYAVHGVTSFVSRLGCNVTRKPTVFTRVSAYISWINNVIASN

[2] = biological target: T4, bovine alpha-chymotrypsin (bovine, UniProt P00766 1-13; P00766 16-146; P00766 149-245); assay: cell-based or functional assay
porcine elastase [3] = biological target: T3, porcine elastase; assay: cell-based or functional assay
[4] = biological target: T4, bovine alpha-chymotrypsin; assay: cell-based or functional assay; remark: listed apart in the source
porcine elastase [5] = biological target: T3, porcine elastase; assay: cell-based or functional assay; remark: listed apart in the source
[6] = biological target: T1, human acylamino-acid-releasing enzyme …; assay: cell-based or functional assay
[7] = biological target: T4, bovine alpha-chymotrypsin; assay: enzyme inhibition kinetics, double reciprocal (Lineweaver-Burk) plot, competitive inhibition
Method: The reciprocals of the rate of the substrate hydrolysis for each inhibitor concentration were plotted against the reciprocals of the substrate concentrations. Ki was determined from the formula as per the competitive type of inhibition.

[8] = biological target: T2, porcine acylamino-acid-releasing enzyme …; assay: cell-based or functional assay
[9] = biological target: T1, human acylamino-acid-releasing enzyme …; assay: cell-based or functional assay; remark: listed apart in the source
[10] = biological target: T2, porcine acylamino-acid-releasing enzyme …; assay: enzyme inhibition kinetics, Lineweaver-Burk plot, competitive inhibition
[11] = biological target: T2, porcine acylamino-acid-releasing enzyme …; assay: cell-based or functional assay; remark: listed apart in the source
[12] = biological target: T2, porcine acylamino-acid-releasing enzyme …; assay: enzyme inhibition kinetics with N-acetyl-Ala-pNA as substrate

| Binder | Ki (porcine elastase [1]) | IC50 [2] | IC50 (porcine elastase [3]) | IC50 value (50% inhibitory concentration) [4] | IC50 value (porcine elastase [5]) | IC50 value at 37° C. [6] | Ki [7] | IC50 [8] | IC50 [9] | Ki [10] | IC50 values [11] | Ki [12] |
| --- | --- | --- | --- | --- | --- | --- | --- | --- | --- | --- | --- | --- |
| recombinant S. solfataricus inhibitor Sso0767 (SsCEI) (other, The filling uses Sso0767, Sso1273 and SsCEI for the same protein; also called Sso1273; not shown: C-terminal His tag from expression vector pET-28) MNSESIYSMRVVSSAFKNEDFIPIKYTCDGQDLSPELEWDLVTNAKSYAIIVEDPDAPGGTFIHWVIYNITTNRLPEGVPRLYKSQYGVQGVNDFGNIGYNGPCPPKTHPPHRYYFYVYAIDTILLEIKNINADKLKSLMEGHGIERGFVMGKYKRK | 0.1 µM | 0.025 µM | 0.04 µM | 0.1 µM | 0.15 µM | 0.02 µM | 0.08 µM | – | – | – | – | – |
| TILAEIKNINAD-NH2 (also called Peptide 4) [Compound 4 or SsCEI 4] | – | – | – | – | – | – | – | 35 µM | 35 µM | 4 µM | – | – |
| YAIDTILAEIKNINAD-NH2 (also called Peptide 3) [Compound 3 or SsCEI 3] | – | – | – | – | – | – | – | 25 µM | 25 µM | – | 20 µM | 20 µM |
